Measured values reported in the supplement of paper PMC10724198.
± gives the standard deviation of the averaged measurements.

Tested on: Saccharomyces cerevisiae
Test: protein stability index of tFT-peptide fusion (C-terminal peptide) (PSI (0-1 scale)); higher = more stable (slower turnover)
Conditions: temperature: 30 C
Experimental: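 MPS profiling in S. cerevisiae of the yeast C-terminome library: the last 12 aa of each annotated ORF are fused to the C-terminus of a sfGFP-mCherry timer, after a GGGS linker. Cells are FACS-sorted into 8 mCherry/sfGFP bins and deep-sequenced. PSI runs from 0 (unstable) to 1 (stable); wild type and das1Δ backgrounds, two technical replicates each.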

[1] = genetic background: das1 deletion

| Sequence | protein stability index [1] | protein stability index (genetic background: wild type) |
| --- | --- | --- |
| DSHEDMKRRRLE [ROX3 C-terminal 12 aa] | 0.6865 ± 0.0045 | 0.695 ± 0.0078 |
| DSIRRIREKYSN [APP1 C-terminal 12 aa] | 0.6896 ± 0.0039 | 0.492 ± 0.013 |
| DTFFDRVMKVLT [NAN1 C-terminal 12 aa] | 0.707 ± 0.034 | 0.6917 ± 0.0012 |
| DVLDDLYRKLQR [CSE2 C-terminal 12 aa] | 0.7138 ± 8.1e-05 | 0.699 ± 0.02 |
| DWQNGQVEDSIP [PEX14 C-terminal 12 aa] | 0.711 ± 0.023 | 0.672 ± 0.0079 |
| DYKLRELIYDTI [AIP5 C-terminal 12 aa] | 0.7014 ± 0.0011 | 0.661 ± 0.018 |
| DYSFVNTFRDYE [HAL9 C-terminal 12 aa] | 0.697 ± 0.022 | 0.736 ± 0.053 |
| EAAKKSEKKAKK [RPL34A C-terminal 12 aa] | 0.695 ± 0.0092 | 0.689 ± 0.023 |
| EAAKYFREQYKN [MET6 C-terminal 12 aa] | 0.7045 ± 0.0028 | 0.7172 ± 0.0068 |
| EATIENLKRLKL [VAS1 C-terminal 12 aa] | 0.693 ± 0.016 | 0.642 ± 0.0087 |
| ECPGGCPGVAFI [RTC1 C-terminal 12 aa] | 0.7077 ± 0.0053 | 0.685 ± 0.024 |
| EDDITVVVVRVD [PTC7 C-terminal 12 aa] | 0.646 ± 0.019 | 0.673 ± 0.02 |
| EDEFLINSDDEM [CUE5 C-terminal 12 aa] | 0.726 ± 0.064 | 0.716 ± 0.037 |
| EDWSVEELIVDL [RPO26 C-terminal 12 aa] | 0.681 ± 0.009 | 0.71 ± 0.022 |
| EEANEDEEEDDW [MYO5 C-terminal 12 aa] | 0.6825 ± 0.0025 | 0.706 ± 0.015 |
| EEEAGYSDVEME [UTP5 C-terminal 12 aa] | 0.6936 ± 0.005 | 0.698 ± 0.013 |
| EEEKRRRKKGIR [SPT2 C-terminal 12 aa] | 0.706 ± 0.022 | 0.662 ± 0.0095 |
| EEGEVVEEEAEK [HSP78 C-terminal 12 aa] | 0.678 ± 0.022 | 0.6852 ± 0.0044 |
| EELEAEQIDVFS [PRP8 C-terminal 12 aa] | 0.689 ± 0.023 | 0.684 ± 0.02 |
| EELFEEDSFYKY [NDT80 C-terminal 12 aa] | 0.736 ± 0.011 | 0.759 ± 0.019 |
| EEPQLDLLDDVL [MTW1 C-terminal 12 aa] | 0.706 ± 0.03 | 0.709 ± 0.084 |

| Sequence | protein stability index [1] | protein stability index (genetic background: wild type) |
| --- | --- | --- |
| EESEKQLYTVLK [CUS1 C-terminal 12 aa] | 0.688 ± 0.0087 | 0.676 ± 0.01 |
| EETLEFDPTLLV [YBL062W C-terminal 12 aa] | 0.707 ± 0.0077 | 0.692 ± 0.023 |
| EFEENPNPTVEN [HSP42 C-terminal 12 aa] | 0.731 ± 0.033 | 0.702 ± 0.054 |
| EFHQDFFSKYRN [ALT2 C-terminal 12 aa] | 0.707 ± 0.011 | 0.729 ± 0.027 |
| EGENVRSKVERF [YKL070W C-terminal 12 aa] | 0.7262 ± 0.0046 | 0.704 ± 0.053 |
| EGKEEIIYDSEG [RAD55 C-terminal 12 aa] | 0.6913 ± 0.006 | 0.677 ± 0.047 |
| EGSGEFVGEMEI [MRS6 C-terminal 12 aa] | 0.708 ± 0.0019 | 0.714 ± 0.067 |
| EHTMLAKAQGHD [XPT1 C-terminal 12 aa] | 0.71 ± 0.022 | 0.6558 ± 0.0011 |
| EIDGQFCIFQVV [YJL107C C-terminal 12 aa] | 0.711 ± 0.013 | 0.647 ± 0.031 |
| EIKPYLRFTKSK [PRX1 C-terminal 12 aa] | 0.692 ± 0.011 | 0.718 ± 0.085 |
| EIRKRRASSLKA [RPS6A C-terminal 12 aa] | 0.649 ± 0.021 | 0.646 ± 0.0092 |
| EKIKRDLALKKG [PET100 C-terminal 12 aa] | 0.697 ± 0.045 | 0.661 ± 0.059 |
| EKLAALVENAEV [PUF3 C-terminal 12 aa] | 0.68 ± 0.0089 | 0.679 ± 0.04 |
| EKLQLWHSMSND [YOR008C-A C-terminal 12 aa] | 0.698 ± 0.0035 | 0.72 ± 0.033 |
| ELKAHNINVVDK [PNC1 C-terminal 12 aa] | 0.662 ± 0.037 | 0.675 ± 0.044 |
| ELNEEKRRSALP [SAK1 C-terminal 12 aa] | 0.687 ± 0.023 | 0.686 ± 0.016 |
| ELQEKVEQLSKW [POL3 C-terminal 12 aa] | 0.7208 ± 0.00089 | 0.688 ± 0.026 |
| ELYNIIVKSVPK [YRB2 C-terminal 12 aa] | 0.673 ± 0.0039 | 0.695 ± 0.045 |
| EMTHSLFKKYGI [CRC1 C-terminal 12 aa] | 0.705 ± 0.017 | 0.722 ± 0.047 |
| ENFNEVFEAIRS [RSC3 C-terminal 12 aa] | 0.6822 ± 0.0037 | 0.709 ± 0.016 |
| ENFSSALQSPIF [YDL152W C-terminal 12 aa] | 0.733 ± 0.0084 | 0.754 ± 0.055 |

| Sequence | protein stability index [1] | protein stability index (genetic background: wild type) |
| --- | --- | --- |
| ENVLFYIGRVNK [COB C-terminal 12 aa] | 0.726 ± 0.026 | 0.669 ± 0.017 |
| EPYNIKYSNSKK [MSD1 C-terminal 12 aa] | 0.7 ± 0.03 | 0.66695 ± 2.1e-06 |
| EQLADYLIGVQY [PFY1 C-terminal 12 aa] | 0.686 ± 0.014 | 0.6754 ± 0.0032 |
| EQQNFEKCNEYI [NPL6 C-terminal 12 aa] | 0.691 ± 0.01 | 0.655 ± 0.007 |
| EQVRFKNINYKS [AZF1 C-terminal 12 aa] | 0.654 ± 0.0011 | 0.673 ± 0.014 |
| ERAYMYYLRNGK [NAM9 C-terminal 12 aa] | 0.656 ± 0.023 | 0.625 ± 0.021 |
| ERCSLQNPFYSI [YNR066C C-terminal 12 aa] | 0.7315 ± 0.0067 | 0.696 ± 0.0016 |
| ERTSLLSGETQT [YPQ2 C-terminal 12 aa] | 0.67739 ± 0.00033 | 0.684 ± 0.014 |
| ESEYREQQQNPQ [SHQ1 C-terminal 12 aa] | 0.688 ± 0.017 | 0.686 ± 0.085 |
| ESFVECFESFIE [PBI1 C-terminal 12 aa] | 0.714 ± 0.03 | 0.682 ± 0.033 |
| ESGPSIVHHKCF [ACT1 C-terminal 12 aa] | 0.6875 ± 0.003 | 0.6963 ± 0.0026 |
| ESTHKEAMGEKN [MNN5 C-terminal 12 aa] | 0.648 ± 0.014 | 0.675 ± 0.016 |
| EVEKIVKKVLKD [DBP5 C-terminal 12 aa] | 0.7225 ± 0.0038 | 0.6553 ± 0.0058 |
| EWTKLYAKKKPE [UBC13 C-terminal 12 aa] | 0.6853 ± 0.0049 | 0.711 ± 0.01 |
| EYEYEDDGLFER [GCD1 C-terminal 12 aa] | 0.695 ± 0.017 | 0.692 ± 0.029 |
| FEGKPLYQMLKI [YAL047W-A C-terminal 12 aa] | 0.638 ± 0.031 | 0.551 ± 0.011 |
| FFFLLTSLLSPF [LCL1 C-terminal 12 aa] | 0.637 ± 0.029 | 0.592 ± 0.0065 |
| FFKQAEQEQADV [PRP11 C-terminal 12 aa] | 0.7024 ± 0.001 | 0.698 ± 0.0072 |
| FFRYFTFSSSYW [YDR464C-A C-terminal 12 aa] | 0.7002 ± 0.004 | 0.661 ± 0.022 |
